Changes are numbered by the printed parent chain.
B1: fp.011 (antibody, V domains shown)
VH: EVQLLESGGGLVQPGGSLRLSCAGSGFTFNNYAMTWVRQAPGRGLEWVSAISGSGGSSHYADSVKGRFTITRDNSKNTLYLQMNSLRAEDTAVYYCAFIDYYSGWSYYYGLDVWGQGTTVTVSS
VL: EIVLTQSPATLSLSPGERATLSCRASQGVRTYVAWYQQKPGQAPRLLIYDASNRATGIPARFSGSGSGTDFTLTISSLEPEDFAVYYCQQRYNWPLCSFGQGTKLEIK
B2: fp.010 (antibody, V domains shown)
VH: EVQLLESGGGLVQPGGSLRLSCAASGFTFSTYAMNWVRQAPGKGLEWVSAISSSGLSTQYADSVRGRFTISRDTSKNTLYLHMNSLRAGDTAVYYCAKVEYSGYDPRGPFDSWGQGTLVTVSS
VL: DIQMTQSPSTLSASVGDRVTITCRASQSISGWLAWYQQKPGRAPKLLIYKASSLERGVPSRFSGSGSGTEFTLTISSLQPDDFATYYCQEYSSYPLCTFGQGTKLEIK
B3: fp.001 (antibody, V domains shown)
VH: VQLVESGGGVVQPGRPLRLSCSGSGFIFSNYAMHWVRQAPGKGLEWVAIISFDARNKRYADSVEGRFTISRDNSKNILYLQMNSLRLEDSAVYFCARDLFLSDYDNGVYDPTRGGFDYWGQGTLVTVSS
VL: EIVMTQSPATLSLSPGERATLSCRASQSVNNRLAWYQQKLGQPPRLLISGASTRATGIPARFTGSGSGTEFTLTISSLQSEDFAVYYCQQYHDWPLLSFGGGTKVEIK
B4: fp.008 (antibody, V domains shown)
VH: VQLVESGGGVVQPGRSLRLSCRASGFRFNNYAMHWVRQAPGKGLEWVAIISYEARNEKYAASVKGRFSISRDNAKNTLYLQMNSLRPEDTAIYYCARDVFLSDYDQSGYDVTRGGFDYWGQGTLVTVSS
VL: EIVMTQSPATLSVSPGESATLSCRASQSVSSSLAWYQHKFGQAPRLLIYGASTRATGIPDRFSGSGSGMEFTLTISSLQSEDVAIYYCQQYGDWPLVTFGGGTKVEIK
B5: hr2.012 (antibody, V domains shown)
VH: QVQLVQSGAEVKKPGASVKVSCKASGYTFTSHYIHWVRQAPGQGLEWMGIIKPSGGNTIYAQTFQGRVTMTRDTSTSTVYMELRSLTSDDTAVYYCARDQDHGLQRWGQGTLVTVSS
VL: QSVLTQPPSVSAPPGQKVTISCSGSSSNIGNNFVSWYQQLPGTAPKLLIYDNIERPSGIPDRFSGSRSGTSATLGITGLQTGDEADYYCGTWDTSLGAWVFGGGTKVTVL
B6: hr2.015 (antibody, V domains shown)
VH: QVQLVQSGAEVKKPGASVKVSCKASGYTFSSYYVNWVRQAPGQGLEWLGIINRSGSSTIYAQKFQGRVTMTRDTSTSTVYLELSSLRSEDTAVYYCARDQDHALHWGQGTLVTVSS
VL: B5 VL with P13A, N31S, F33Y, I53S, G97S, V107L
B7: hr2.013 (antibody, V domains shown)
VH: QVQLVQSGAEVKKPGASVKISCKASGYTFTNNYMNWVRQAPGQGLEWMGIIKPSSGSTIYAHKFQGRVTMTRDTSTSTVYMEVRSLTSEDTAVYYCARDQDHGLQNWGQGTLVTVSS
VL: B5 VL with P13A, P14S, S21Y, G30A, N31S, L40F, I53N, E54Q, V107L
B8: hr2.014 (antibody, V domains shown)
VH: QVQLVQSGAEVKKPGASVKVSCKASGYTFTTYAVHWLRQVPGQRPEWIGWINAANGNTKYSEKFQGRVTITRDTSASTAYMDLRSLRSEDTAVYYCARLLVVRDDPYYYGMDVWGQGTTVTVSS
VL: not shown
B9: hr2.016 (antibody, V domains shown)
VH: EVQLLESGGGLVQPGGSLRLSCAASGFMFSKYAMTWVRQTPGKGLEWVSVISGGGGSTYYADSVKGRFTISRDNSKNTLYLQMNSLRAEDTAVYYCAKLLVVFVIDYWGQGALVTVSS
VL: EIVLTQSPGTLSLSPGERATLFCRASQSVSSNLAWYQQKPGRAPRLLISGASSRATGIPDRFSGSGSGTDFTLTISRLEPEDFAVYYCQQYGSSPPTFGQGTKVEIK
B10: hr2.017 (antibody, V domains shown)
VH: EVQLVESGGGLVQPGGSLRLSCAVSGFAFSSSWMHWIRQAPGRGLVWVSRINRDGSTTDYADSVKGRFTISRDNAKATLYLQMNSLRAEDTAVYYCATMGFDYWGQGALVTVSS
VL: DIVMTQSPDSLAVSLGERATINCKSSQNVLYSSNNKNHLSWYQQKPGQPPKLLIYWASTRKSGVPDRFSGSGSGTDFTLTINSLQAEDVAVYYCQQYFSTPNTFGQGTKLEIK
B11: hr2.090 (antibody, V domains shown)
VH: EVQLLESGGGLVQPGGSLRLSCAASGVTFSRYAMSWVRQAPGKGLEWVSTISGGGGGTYYADSVKGRFTISRDNSKNTLYLQMNSLRAEDTAVYYCATLLTVPGPYYFEYWGQGTLVTVSS
VL: EIVLTQSPGTLSLSPGERATLSCRASQSVSSSYLAWYQQKPGQAPRLLIYGASSRATGIPDRFSGSGSGTDFTLTISRLESEDFAVYYCQHSRFTFGPGTRVDIK
B12: hr2.086 (antibody, V domains shown)
VH: EVQLLESGGGLVQPGGYLRLSCAASGFTFSSYAMSWVRQAPGKGLEWVSVISGGGGSAYYADSVKGRFTISRDNSKNTLYLQMNSLRAEDTAVYYCAKIGMILVFDYWGQGTLVTVSS
VL: EIVLTQSPGTLSLSPGERATLSCRASQSVSNNYLAWYQQKPGQAPRLLISGASSRATGIPDRFSGSGSGTDFTLTISRLEPEDFAVYYCQQYGSSPPTFGQGTKVEIK
B13: hr2.018 (antibody, V domains shown)
VH: EVQLVESGGGLVKPGGSLRLSCVASGSSVIDAWMNWVRQAPGKGLEWVGRIKSKTNGATTDYAAPVKGRFTISRDDSKNLSYLQMNSLKTEDTGIYYCTTSPLPNFDYWGRGTLVTVSS
VL: not shown
B14: hr2.019 (antibody, V domains shown)
VH: B13 VH with V23A, A32V, S53T, T55A, N56S, T59A, A63G, K89R, T90A
VL: DIVMTQSPDFLAVSLGETATINCRSSQSVFYFANNKNYLAWYQQKPGQPPKLLIYWASKRESGVPDRFSGSGSGTDFTLTISSLQAEDVATYYCQQYSSPAITFGPGTKVDIK
B15: hr2.021 (antibody, V domains shown)
VH: QVQLVQSGAEVKKPGASVKVSCKASEAIFSGSYLHWVRQAPGQGLEWMGIITPSGDKTFYAQRFQGRLTMTRDTSTNTLHMHLSGLNSEDTAMYYCARQADKGGWDYWGQGTLVTVSS
VL: EIVLTQSPGTLSLSPGERATLSCRASQSVTSNYVAWYQQKPGQAPRLLIYGASTRATGIPDRFSGGGSGTDFTLTITRLEPEDFAVYYCQQYGSSPPTFTFGPGTKVDIK
B16: hr2.023 (antibody, V domains shown)
VH: QVQLVQSGAEVKKPGASVKVSCRASENIFSDSYLHWVRQAPGQGLEWMGIITPSGDKTFYAQQFQGRLTMTRDTPTNTLHMDLRGLTSADTAIYYCARQATKGGWDYWGQGTLVTVSS
VL: B15 VL with R18S, S31R, V34L, K40Q, T54N, I59V, G66S, T77S, T100I
B17: hr2.024 (antibody, V domains shown)
VH: QVQLVQSGAEVKKPGASVKVSCKASEDIFTDSYLHWVRQAPGQGLEWMGIITPSGDKTFYAQQFQGRLTMTRDPSTNTLYMFLSGLRSDDTAMYFCARQAEKGGWDYWGHGTLVTVSS
VL: B15 VL with E17Q, A25S, S28T, V29I, V34L, K40R, T54I, G66S, T77S, T100I
B18: hr2.020 (antibody, V domains shown)
VH: EVQLVQSGAEVKKPGESLKISCKGSGYRFASHWIGWVRQMPGKGLQWMGIIYPGDSDTKYSPSFQGQVTISADKSINTVYLHWTSLKASDTAVYYCARRPPHLDGGDSPIRFDHWGQGTLVTVSS
VL: QSVLTQPPSASGTPGQRVTISCSGSRSNIGSNDVYWYQQFPGTAPKLLIYRNNQRPSGVPDRFSGSKSGTSASLAISGLRSEDEADYYCATWDDRLTGVFGGGTKLTVV

Molecular target: MERS FP peptide (MERS), K9N5Q8
Assay: peptide ELISA

| Binder | EC50 [µg/mL] |
| --- | --- |
| B1 | 0.0363 |
| B2 | 0.0593 |
| B3 | 0.0369 |
| B4 | 0.0361 |

Molecular target: SADS HR2 peptide (SADS)
Assay: peptide ELISA

| Binder | EC50 [µg/mL] |
| --- | --- |
| B5 | 0.023 |
| B6 | 0.0731 |
| B7 | 0.042 |
| B8 | 0.705 |
| B9 | 0.0738 |

Molecular target: NL63 FP peptide (NL63), Q6Q1S2
Assay: peptide ELISA

| Binder | EC50 [µg/mL] |
| --- | --- |
| B1 | 0.0261 |
| B2 | 0.0451 |
| B3 | 0.0214 |
| B4 | 0.0226 |

Molecular target: SARS-CoV-2 FP peptide (SARS-CoV-2)
Assay: peptide ELISA

| Binder | EC50 [µg/mL] |
| --- | --- |
| B1 | 0.0363 |
| B2 | 0.119 |
| B3 | 0.0249 |
| B4 | 0.0366 |

Molecular target: OC43 FP peptide (OC43), P36334
Assay: peptide ELISA

| Binder | EC50 [µg/mL] |
| --- | --- |
| B1 | 0.0218 |
| B2 | 0.0421 |
| B3 | 0.0175 |
| B4 | 0.0235 |

Molecular target: 229E FP peptide (229E)
Assay: peptide ELISA

| Binder | EC50 [µg/mL] |
| --- | --- |
| B1 | 0.0503 |
| B2 | 0.135 |
| B3 | 0.0232 |
| B4 | 0.019 |

Molecular target: HKU4 HR2 peptide (HKU4), A3EX94
Assay: peptide ELISA

| Binder | EC50 [µg/mL] |
| --- | --- |
| B5 | 0.0184 |
| B6 | 0.05 |
| B7 | 0.0181 |
| B10 | 0.0203 |
| B8 | 0.0457 |
| B11 | 0.425 |
| B12 | 0.0269 |
| B13 | 0.0417 |
| B14 | 0.0154 |
| B9 | 0.00744 |
| B15 | 0.021 |
| B16 | 0.0149 |
| B17 | 0.0184 |
| B18 | 0.0352 |

Molecular target: HKU5 HR2 peptide (HKU5), A3EXD0
Assay: peptide ELISA

| Binder | EC50 [µg/mL] |
| --- | --- |
| B5 | 0.0204 |
| B6 | 0.0467 |
| B7 | 0.0292 |
| B10 | 0.0249 |
| B8 | 0.0312 |
| B14 | 0.0505 |
| B9 | 0.0256 |
| B15 | 0.0551 |
| B16 | 0.0422 |
| B17 | 0.048 |
| B18 | 0.0631 |

Molecular target: MHV HR2 peptide (MHV)
Assay: peptide ELISA

| Binder | EC50 [µg/mL] |
| --- | --- |
| B5 | 0.0177 |
| B6 | 0.0543 |
| B7 | 0.043 |
| B10 | 0.02 |
| B11 | 0.761 |
| B9 | 0.0266 |
| B15 | 0.0333 |
| B16 | 0.0106 |
| B17 | 0.0259 |
| B18 | 0.0285 |

Molecular target: HKU1 FP peptide (HKU1)
Assay: peptide ELISA

| Binder | EC50 [µg/mL] |
| --- | --- |
| B1 | 0.0197 |
| B2 | 0.0372 |
| B3 | 0.0298 |
| B4 | 0.0219 |

Molecular target: SARS-CoV-2 HR2 peptide (SARS-CoV-2), P0DTC2
Assay: peptide ELISA

| Binder | EC50 [µg/mL] |
| --- | --- |
| B5 | 0.0196 |
| B6 | 0.047 |
| B7 | 0.0317 |
| B10 | 0.0145 |
| B8 | 0.0357 |
| B11 | 0.085 |
| B13 | 0.0336 |
| B14 | 0.0267 |
| B15 | 0.0242 |
| B16 | 0.0175 |
| B17 | 0.106 |
| B18 | 0.0353 |

Molecular target: SARS-CoV FP peptide (SARS-CoV), P59594
Assay: peptide ELISA

| Binder | EC50 [µg/mL] |
| --- | --- |
| B1 | 0.023 |
| B3 | 0.0289 |
| B4 | 0.0267 |

From patent US20250382354A1
